Results as given in US20160053248A1, “SYSTEMS AND METHODS FOR EVOLVING ENZYMES WITH DESIRED ACTIVITIES” (Potomac Affinity Proteins, LLC, priority 2009, published 2016).
Primed or numbered codes have the meaning given here. No end group written: not given here. *: point of attachment. Dabcyl′ = CN(C)c1ccc(/N=N/c2ccc(C(=O)*)cc2)cc1

How the values were obtained:
[1] = target: SBT189; conditions: read-out: apparent KD for azide; anion binding to the enzyme-substrate complex
Source text: The acylation reaction: Step 2 describes conversion of the ternary complex into an acyl-enzyme with the concomitant release to the C-terminal portion of the substrate. With substrates used in phage display, the GB domain is released concomitantly with the acylation step. If a fluorescent reporter group is attached to subtilisin, a decrease in energy transfer enables time-dependent quantitation of acylation.

[2] = test system: GA-PFRAL-S-GB
[3] = target: SBT189-Dabcyl conjugate (Bacillus amyloliquefaciens (Bacillus velezensis)) (UniProt P00782); experiment: single turn-over kinetics, quenching of GFP fluorescence by Dabcyl; 0.1M KPO4, pH 7.2, 5 mM azide, 22° C
[4] = test system: SBT189; experiment: Transient state kinetics with FRET peptide: product release and product binding; design: species or system Bacillus amyloliquefaciens; conditions: not influenced by azide concentration
Protocol: The deacylation reaction and product release: A self-quenched FRET peptide that becomes highly fluorescent when cleaved (Dabcyl-EEDKLFRAL-SATE(EDANS)G (SEQ ID NO:16)) was synthesized. This peptide has been used to determine transient state kinetic parameters. Deacylation of SBT189 in 50 mM azide is faster (3.3 s^−1) than the wild type counterpart (1.8 s^−1). The rate of product (Dabcyl-EEDKLFRAL; (SEQ ID NO:17)) release is 6 s^−1 and Kp is 1.2 μM. Product binding is not influenced by azide concentration. Strong product binding of subtilisin-phage to GA-PCOGNATE- is used for the collection of active mutants in the release step in phage selection (see FIG. 5). Binding is constitutive at this step, however, and is not used to increase selectivity.

[5] = target: T1, subtilisin variant SBT189 (Bacillus amyloliquefaciens (Bacillus …, UniProt P00782 108-382)); experiment: transient state kinetics with the FRET peptide
T1 construct: Engineered subtilisin BPN' variant with D32A; also called S189; RSUB1
T1 chain: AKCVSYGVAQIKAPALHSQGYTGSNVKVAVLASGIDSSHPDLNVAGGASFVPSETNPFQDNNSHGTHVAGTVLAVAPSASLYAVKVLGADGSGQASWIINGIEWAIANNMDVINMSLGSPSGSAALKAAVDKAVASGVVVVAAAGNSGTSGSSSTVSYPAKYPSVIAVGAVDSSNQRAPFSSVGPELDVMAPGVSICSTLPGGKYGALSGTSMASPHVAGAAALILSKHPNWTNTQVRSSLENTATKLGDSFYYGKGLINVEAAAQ

[6] = test system: SBT189; experiment: Activation cascade: release of free SBT189 from prodomain inhibitor complexes; format: biochemical, Bacillus amyloliquefaciens
Protocol: (§1) To do this complexes of SBT189 were formed with two different prodomain inhibitors. The first complex contained 100 μM of SBT189 and prodomain variant pS156, and the second complex contained 100 μM SBT189 and prodomain variant pS170. To start the activation cascade, 10 nM wild type subtilisin was added to each complex. Wild type subtilisin is able to cleave both the loop sequence MSTM (SEQ ID NO:23) in pS156 and the loop sequence YKTM (SEQ ID NO:22) in pS170. After 5 minutes of digestion, the wild type subtilisin was inactivated by the addition of EDTA to 1 mM and heating to 55° C. for 10 minutes. Azide was then added to the reactions to 10 mM and the activity of free SBT189 subtilisin was then measured as a function of time. The release of free SBT189 from the pS156 complex occurs at a rate of about 1 days^−1. This is because the cleavage of the loop sequence MSTM (SEQ ID NO:23) by SBT189 is very slow. In contrast, the complete activation of SBT189 from the pS170 complex occurs within 10 minutes. Because SBT189 can readily cleave the loop sequence YKTL (SEQ ID NO:24), SBT189 is rapidly released after the self-activating chain reaction is initiated by wild type subtilisin. Thus the protease signal from the pS170 complex increases about 10^4-fold in 10 minutes (from 10 nM to 100 μM).

[7] = target: T1, subtilisin variant SBT189; experiment: complex formed at 100 µM for the activation cascade
Protocol: as §1, with “days⁻¹.” for “days^−1.”, “10⁴-fold” for “10^4-fold”

[8] = target: GB-GFP fusion protein with cognate variation LFQSL-SA, P06654
[9] = target: GB-GFP fusion protein with cognate variation LFRAL-MA, P06654
[10] = target: GB-GFP fusion protein with cognate variation LFRAM-SA, P06654
[11] = target: GB-GFP fusion protein with cognate variation LFRAY-SA, P06654
[12] = target: GB-GFP fusion protein with cognate variation LLRAL-SA, P06654
[13] = target: GB-GFP fusion protein with cognate variation LYRAL-SA, P06654
[14] = target: GB-GFP fusion protein with cognate variation VFKAM-SG, P06654
[15] = target: GB-LFRAL-SA-GFP, P06654
[16] = target: GA-PFRAL-S-GB; remark: listed apart in the source
[17] = target: T2, prodomain variant pS156
T2 chain: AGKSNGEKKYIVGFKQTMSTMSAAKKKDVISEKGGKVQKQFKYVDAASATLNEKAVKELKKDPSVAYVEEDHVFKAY

[18] = target: T3, prodomain variant pS170
T3 chain: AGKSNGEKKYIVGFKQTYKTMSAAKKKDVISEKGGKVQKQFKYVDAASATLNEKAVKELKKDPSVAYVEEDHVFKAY

[19] = 100 μM complex, started with 10 nM wild type subtilisin, 10 mM azide

Which Kd [1] does the source give for [N-]=[N+]=[N-] [azide] here?
Its Kd is 50 mM.

“subtilisin synthesized as a fusion protein on the surface of M13 phage” was tested. Which “enrichment of phagemid relative to helper phage after one round of catch and release selection” value [2] did it give?
Its value is 350 fold enrichment.

With “GB-GFP fusion protein with cognate variation LFRAY-SA (from UniProt P06654 228-282)” as the molecule, how does the KS [3] read?
Its KS is 1900 µM.

With “GB-LFRAL-SA-GFP (from UniProt P06654 228-282)” as the molecule, how does the KS [3] read?
Its KS is 16 µM.

For “GB-GFP fusion protein with cognate variation VFKAM-SG (from UniProt P06654 228-282)”, which KS [3] is on record?
Its KS is 43 µM.

Which KS [3] does the source give for “GB-GFP fusion protein with cognate variation LFRAM-SA (from UniProt P06654 228-282)” here?
The KS was 36 µM.

For Dabcyl-EEDKLFRAL ({Dabcyl′}-EEDKLFRAL), which “rate of product release” value [4] is on record?
Its value is 6 s⁻¹.

With “GB-GFP fusion protein with cognate variation LFRAL-MA (from UniProt P06654 228-282)” as the molecule, how does the KS [3] read?
Its KS is 24 µM.

Which KS [3] does the source give for “GB-GFP fusion protein with cognate variation LYRAL-SA (from UniProt P06654 228-282)” here?
Its KS is 88 µM.

“GB-GFP fusion protein with cognate variation LLRAL-SA (from UniProt P06654 228-282)” was tested. Which KS [3] did it give?
Its KS is 670 µM.

With “GB-GFP fusion protein with cognate variation LFQSL-SA (from UniProt P06654 228-282)” as the molecule, how does the KS [3] read?
Its KS is 66 µM.

B1: Dabcyl-EEDKLFRAL (peptide)
peptide: {Dabcyl′}-EEDKLFRAL
notes: Acyl-side cleavage product of the FRET peptide; also called product
How did the koff [5] turn out when B1 was run?
The koff was 6 s⁻¹.

B2: prodomain variant pS170 (other)
chain: AGKSNGEKKYIVGFKQTYKTMSAAKKKDVISEKGGKVQKQFKYVDAASATLNEKAVKELKKDPSVAYVEEDHVFKAY
notes: M18Y, S19K, A74F, H75K against the prodomain; also called p5170
For B2, which “time to complete activation of SBT189 from the complex” value [6, 19] is on record?
Its value is no more than 10 min.

And the “increase of protease signal” value ([6]; in 10 minutes (from 10 nM to 100 μM))?
Its value is “about 10^4 fold”.

Does B2 bind [7]?
Result: binds

B3: pS156 (protein)
chain: AGKSNGEKKYIVGFKQTMSTMSAAKKKDVISEKGGKVQKQFKYVDAASATLNEKAVKELKKDPSVAYVEEDHVFKAY
Which “rate of release of free SBT189 from the complex” value [6, 19] does the source give for B3 here?
The value was “about 1 days^−1”.

B4: SBT189-Dabcyl conjugate (protein)
chain: AKCVSYGVAQIKAPALHSQGYTGSNVKVAVLASGIDSSHPDLNVAGGASFVPSETNPFQDNNSHGTHVAGTVLAVAPSASLYAVKVLGADGSGQASWIINGIEWAIANNMDVINMSLGSPSGSAALKAAVDKAVASGVVVVAAAGNSGTSGSSSTVSYPAKYPSVIAVGAVDSSNQRAPFSSVGPELDVMAPGVSICSTLPGGKYGALSGTSMASPHVAGAAALILSKHPNWTNTQVRSSLENTATKLGDSFYYGKGLINVEAAAQ
B4 was tested. Which Relative k2/KS [8] did it give?
The Relative k2/KS was 0.04.

What about the acylation rate (k2) [8] of the same molecule?
Its acylation rate (k2) is 0.23 s⁻¹.

What about the Relative k2/KS [9] of the same molecule?
The Relative k2/KS was 0.027.

And the acylation rate (k2) [9]?
The acylation rate (k2) was 0.06 s⁻¹.

And the Relative k2/KS [10]?
Its Relative k2/KS is 0.32.

And the acylation rate (k2) [10]?
The acylation rate (k2) was 1 s⁻¹.

What about the Relative k2/KS [11] of the same molecule?
Its Relative k2/KS is 0.001.

And the acylation rate (k2) [11]?
Its acylation rate (k2) is 0.17 s⁻¹.

What about the Relative k2/KS [12] of the same molecule?
The Relative k2/KS was 0.01.

And the acylation rate (k2) [12]?
The acylation rate (k2) was 0.59 s⁻¹.

What about the Relative k2/KS [13] of the same molecule?
The Relative k2/KS was 0.03.

And the acylation rate (k2) [13]?
The acylation rate (k2) was 0.23 s⁻¹.

And the Relative k2/KS [14]?
Its Relative k2/KS is 0.004.

And the acylation rate (k2) [14]?
Its acylation rate (k2) is 0.017 s⁻¹.

What about the Relative k2/KS [15] of the same molecule?
The Relative k2/KS was 1.

What about the “activity against the cognate sequence, relative to VFKAM-SG” value [15] of the same molecule?
The value was 250-times greater.

What about the acylation rate (k2) [15] of the same molecule?
Its acylation rate (k2) is 1.4 s⁻¹.

B5: subtilisin variant SBT189 (protein)
chain: AKCVSYGVAQIKAPALHSQGYTGSNVKVAVLASGIDSSHPDLNVAGGASFVPSETNPFQDNNSHGTHVAGTVLAVAPSASLYAVKVLGADGSGQASWIINGIEWAIANNMDVINMSLGSPSGSAALKAAVDKAVASGVVVVAAAGNSGTSGSSSTVSYPAKYPSVIAVGAVDSSNQRAPFSSVGPELDVMAPGVSICSTLPGGKYGALSGTSMASPHVAGAAALILSKHPNWTNTQVRSSLENTATKLGDSFYYGKGLINVEAAAQ
With B5 as the molecule, how does the “cleavage rate in the absence of azide” value [16] read?
The value was 0.12 min⁻¹.

And the “digestion of the fusion protein, protein gel and MALDI-MS” value [15]?
The value was “The fusion protein was correctly and specifically processed to release GB-LFRAL and SA-GFP”.

And the “release of free SBT189 from the complex” value [17]?
The value was “about 1 days^-1”.

And the “complete activation of SBT189 from the complex” value [18]?
The value was “occurs within 10 minutes”.

What about the “increase of the protease signal from the complex” value [18] of the same molecule?
The value was “increases about 10^4-fold in 10 minutes (from 10 nM to 100 µM)”.

B6: RSUB1(AF350) (protein)
chain: AKCVSYGVAQIKAPALHSQGYTGSNVKVAVLASGIDSSHPDLNVAGGASFVPSETNPFQDNNSHGTHVAGTVLAVAPSASLYAVKVLGADGSGQASWIINGIEWAIANNMDVINMSLGSPSGSAALKAAVDKAVASGVVVVAAAGNSGTSGSSSTVSYPAKYPSVIAVGAVDSSNQRAPFSSVGPELDVMAPGVSICSTLPGGKYGALSGTSMASPHVAGAAALILSKHPNWTNTQVRSSLENTATKLGDSFYYGKGLINVEAAAQ
Which results are given for B6?
rate of GB release in saturating azide [16]: 6.4 s⁻¹; rate of GB release with no azide present [16]: 0.0019 s⁻¹

B7: wild type subtilisin (protein)
chain: AQSVPYGVSQIKAPALHSQGYTGSNVKVAVIDSGIDSSHPDLKVAGGASMVPSETNPFQDNNSHGTHVAGTVAALNNSIGVLGVAPSASLYAVKVLGADGSGQYSWIINGIEWAIANNMDVINMSLGGPSGSAALKAAVDKAVASGVVVVAAAGNEGTSGSSSTVGYPGKYPSVIAVGAVDSSNQRASFSSVGPELDVMAPGVSIQSTLPGNKYGAYNGTSMASPHVAGAAALILSKHPNWTNTQVRSSLENTTTKLGDSFYYGKGLINVQAAAQ
What does the source list for B7?
cleavage of the prodomain loop [17]: able to cleave; cleavage of the prodomain loop [18]: able to cleave
